Our source for the binding result and Kd values is patent US20230181772A1 (CITY OF HOPE, published 2023).

The target of one assay is T1, BSA (UniProt P02769 25-607).
T1 construct: Negative control coating in the ELISA; also called BSA coated wells
Kind of assay: ELISA, control wells blocked with BSA. The protocol: For further confirmation of specific antigen binding ELISA was used to detect binding of A2scFv-Fc2 and A2scFv-Fc2DM to immobilized antigen hPSCA-mFc (FIG. 5). Different concentrations of hPSCA-mFc were coated (1, 3 and 5 μg/mL in PBS, 100 μL/well) overnight, control wells were blocked with BSA. Presence of immobilized antigen was detected using goat anti-mouseFc-AP. […] No nonspecific binding to BSA coated wells was detected.
Background: ELISA stands for enzyme-linked immunosorbent assay.

Assay [1] deals with T2, human prostate stem cell antigen (PSCA) on the cell surface (human, UniProt O43653 12-83).
T2 construct: Expressed on transduced cell lines (22Rv1-hPSCA, RM9-hPSCA, KPC-hPSCA) or endogenously on Capan-1; also called hPSCA; 22Rv1-PSCA
T2 sequence: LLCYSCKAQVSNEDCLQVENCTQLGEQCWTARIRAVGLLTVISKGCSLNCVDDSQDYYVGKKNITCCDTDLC
Kind of assay: flow cytometry titration on PSCA-expressing cells, apparent on-cell affinity (half-maximal binding). On the procedure: The capability of the anti-PSCA antibody fragments to bind to PSCA expressed on the cell surface was analyzed by flow cytometry. Antigen specificity was confirmed using PSCA-positive and negative cell lines. In this assay binding was only seen with 22Rv1-PSCA cells but not with 22Rv1 (FIG. 9A). […] Binding to murine cell lines transduced to express human PSCA and the human pancreatic cancer cell line Capan-1 was also confirmed using the A2scFv-Fc2 (FIG. 9C).

In assay [2] the target is T3, recombinant human PSCA-mouseFc fusion protein (human, UniProt O43653 12-83, limits assumed).
T3 construct: also called hPSCA-mFc; Recombinant human PSCA mouse Fc fusion protein (UCLA); not shown: mouse Fc
T3 sequence: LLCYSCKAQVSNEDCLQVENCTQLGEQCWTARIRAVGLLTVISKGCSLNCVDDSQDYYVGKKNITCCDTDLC
Kind of assay: saturation binding ELISA on immobilized hPSCA-mFc (1 ug/mL), half-maximal binding, one-site specific binding fit, 3 experiments. On the procedure: Western Blot was also used to test antigen specificity. Recombinant human PSCA mouse Fc fusion protein (UCLA) was blotted and anti-PSCA scFv-Fc variants were tested for binding. Specificity and affinity of antigen binding was further evaluated by performing saturation binding on immobilized antigen in ELISA. Specific binding was fitted using the “one site-specific binding” equation to determine the Kd (ligand concentration that binds half the antigen sites at equilibrium) and Bmax (maximum number of binding sites).
Saturation binding of the anti-PSCA scFv-Fc fragments was tested in ELISA in 3 independent experiments with duplicates. Binding of serial dilutions (1 μM-[…]) of A2scFv-Fc2 and A2scFv-Fc2DM to immobilized recombinant hPSCA-m Fc (1 μg/mL) was specific and dose-dependent (FIG. 6).

T1 sequence (P02769 25-607 limits assumed): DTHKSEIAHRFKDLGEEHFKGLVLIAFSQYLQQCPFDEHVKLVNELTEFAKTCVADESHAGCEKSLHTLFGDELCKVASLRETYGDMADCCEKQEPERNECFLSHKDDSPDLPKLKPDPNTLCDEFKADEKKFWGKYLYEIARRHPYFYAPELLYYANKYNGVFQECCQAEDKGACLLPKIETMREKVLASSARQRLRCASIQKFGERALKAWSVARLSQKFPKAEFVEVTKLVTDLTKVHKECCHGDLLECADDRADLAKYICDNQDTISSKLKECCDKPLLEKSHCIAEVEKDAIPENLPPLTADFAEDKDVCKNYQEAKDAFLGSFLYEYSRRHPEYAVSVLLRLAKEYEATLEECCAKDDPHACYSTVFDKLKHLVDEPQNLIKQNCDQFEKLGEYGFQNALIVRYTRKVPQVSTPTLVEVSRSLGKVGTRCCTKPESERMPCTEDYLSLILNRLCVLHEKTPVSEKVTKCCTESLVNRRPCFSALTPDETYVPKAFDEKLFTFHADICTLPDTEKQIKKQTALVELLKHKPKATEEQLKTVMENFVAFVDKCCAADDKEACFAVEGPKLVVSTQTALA

B1: A2scFv-Fc2 (Fc fusion)
chain: EVQLVESGGGLVQPGGSLRLSCAASGFNIKDYYIHWVRQAPGKGLEWVAWIDPEYGDSEFVPKFQGRATMSADTSKNTAYLQMNSLRAEDTAVYYCKTGGFWGRGTLVTVSSGGGGSGGGGSGGSAQDIQLTQSPSSLSASVGDRVTITCSASSSVRFIHWYQQKPGKAPKRLIYDTSKLASGVPSRFSGSGSGTDFTLTISSLQPEDFATYYCQQWGSSPFTFGQGTKVEIKVECPPCPAPPVAGPSVFLFPPKPKDTLMISRTPEVTCVVVDVSHEDPEVQFNWYVDGMEVHNAKTKPREEQFNSTFRVVSVLTVVHQDWLNGKEYKCKVSNKGLPAPIEKTISKTKGQPREPQVYTLPPSREEMTKNQVSLTCLVKGFYPSDIAVEWESNGQPENNYKTTPPMLDSDGSFFLYSKLTVDKSRWQQGNVFSCSVMHEALHNHYTQKSLSLSPGK
notes: Homodimer of two scFv-Fc peptides: anti-PSCA A2 VH-VL scFv with a (G4S)2-GGSAQ linker, truncated human IgG2 hinge and Fc; Made in FreeStyle 293-F cells, glycosylated at Asn-297; also called anti-PSCA scFv-Fc2
As for B1, the binding result with BSA is recorded as “no binding”. The Kd was 1.2 nM in assay [1] and 0.5 nM in assay [2].

B2: A2scFv-Fc2DM (Fc fusion)
chain: EVQLVESGGGLVQPGGSLRLSCAASGFNIKDYYIHWVRQAPGKGLEWVAWIDPEYGDSEFVPKFQGRATMSADTSKNTAYLQMNSLRAEDTAVYYCKTGGFWGRGTLVTVSSGGGGSGGGGSGGSAQDIQLTQSPSSLSASVGDRVTITCSASSSVRFIHWYQQKPGKAPKRLIYDTSKLASGVPSRFSGSGSGTDFTLTISSLQPEDFATYYCQQWGSSPFTFGQGTKVEIKVECPPCPAPPVAGPSVFLFPPKPKDTLMISRTPEVTCVVVDVSHEDPEVQFNWYVDGMEVHNAKTKPREEQFNSTFRVVSVLTVVAQDWLNGKEYKCKVSNKGLPAPIEKTISKTKGQPREPQVYTLPPSREEMTKNQVSLTCLVKGFYPSDIAVEWESNGQPENNYKTTPPMLDSDGSFFLYSKLTVDKSRWQQGNVFSCSVMHEALHNQYTQKSLSLSPGK
notes: Homodimer; also called A2scFv-FcDM; double mutant
Turning to B2, the binding result with BSA was “no binding”. Further, the Kd in assay [1] worked out at 0.65 nM; in assay [2], 0.8 nM.
